Laboratory results reported in the supplement of paper PMC9112550, “Optimization of the antimicrobial peptide Bac7 by deep mutational scanning” (BMC Biology, 2022).

Tested on: Escherichia coli TOP10
Experiment: shrunken log2 fold change of peptide-encoding DNA abundance (4.5 h post-induction vs induction); higher = less antimicrobial activity (less host growth inhibition)
Conditions: time post-induction: 4.5 h; library: site-saturation at positions 5, 18, 19, 20
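Further: peptides expressed intracellularly from a pBAD plasmid library in pooled LB shake-flask culture, induced with 0.3% L-arabinose, DNA abundance read by NGS, three biological replicates, DESeq2 with apeglm shrinkage.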

| Sequence | shrunken log2 fold change |
| --- | --- |
| RRIRGRPPRLPRPRPRPWDLPRP | -0.0503 |
| RRIRKRPPRLPRPRPRPQHPPRP | 0.105 |
| RRIRMRPPRLPRPRPRPRFWPRP | 0.522 |
| RRIRDRPPRLPRPRPRPPEGPRP | 0.76 |
| RRIRLRPPRLPRPRPRPQFFPRP | 0.551 |
| RRIRQRPPRLPRPRPRPCMKPRP | -0.0118 |
| RRIRCRPPRLPRPRPRPYVCPRP | -0.11 |
| RRIRARPPRLPRPRPRPNINPRP | -0.349 |
| RRIRIRPPRLPRPRPRPVYPPRP | -0.233 |
| RRIRKRPPRLPRPRPRPNCFPRP | 0.274 |
| RRIRRRPPRLPRPRPRPFDVPRP | -0.0126 |
| RRIRDRPPRLPRPRPRPTGIPRP | 0.26 |
| RRIRCRPPRLPRPRPRPYWYPRP | -0.553 |
| RRIRIRPPRLPRPRPRPMIFPRP | -0.266 |
| RRIRHRPPRLPRPRPRPVQRPRP | -0.0182 |
| RRIRHRPPRLPRPRPRPWCTPRP | -0.11 |
| RRIRLRPPRLPRPRPRPFYPPRP | -0.504 |
| RRIRWRPPRLPRPRPRPRAKPRP | 0.788 |
| RRIRFRPPRLPRPRPRPKGTPRP | -0.429 |
| RRIRSRPPRLPRPRPRPQEVPRP | -0.0423 |
| RRIRSRPPRLPRPRPRPGNMPRP | -0.12 |
| RRIRQRPPRLPRPRPRPHRLPRP | -0.0506 |
| RRIRHRPPRLPRPRPRPTVVPRP | -0.00918 |
| RRIRCRPPRLPRPRPRPFGIPRP | -0.129 |
| RRIRDRPPRLPRPRPRPDWNPRP | -0.0851 |

| Sequence | shrunken log2 fold change |
| --- | --- |
| RRIRNRPPRLPRPRPRPNPIPRP | 0.0101 |
| RRIRVRPPRLPRPRPRPNKQPRP | 0.0173 |
| RRIRCRPPRLPRPRPRPKNTPRP | -0.339 |
| RRIRYRPPRLPRPRPRPMRQPRP | -0.0148 |
| RRIRGRPPRLPRPRPRPGSWPRP | 0.938 |
| RRIRVRPPRLPRPRPRPDKMPRP | -0.0822 |
| RRIRPRPPRLPRPRPRPARGPRP | 0.606 |
| RRIRVRPPRLPRPRPRPHLAPRP | 0.101 |
| RRIRYRPPRLPRPRPRPSLLPRP | -0.727 |
| RRIRRRPPRLPRPRPRPPYDPRP | 0.213 |
| RRIRDRPPRLPRPRPRPNDIPRP | -0.211 |
| RRIRWRPPRLPRPRPRPNRLPRP | -0.0743 |
| RRIRQRPPRLPRPRPRPALLPRP | -0.0269 |
| RRIRPRPPRLPRPRPRPEPQPRP | 0.268 |
| RRIRWRPPRLPRPRPRPRPAPRP | 0.865 |
| RRIRNRPPRLPRPRPRPKYLPRP | -0.0259 |
| RRIRPRPPRLPRPRPRPKRGPRP | 0.484 |
| RRIRNRPPRLPRPRPRPSLKPRP | -0.47 |
| RRIRCRPPRLPRPRPRPNQIPRP | -0.367 |
| RRIRLRPPRLPRPRPRPSLLPRP | -0.254 |
| RRIRCRPPRLPRPRPRPSRNPRP | 0.155 |
| RRIRQRPPRLPRPRPRPCWKPRP | 0.111 |
| RRIRERPPRLPRPRPRPVFWPRP | 0.39 |
| RRIRKRPPRLPRPRPRPHHGPRP | -0.11 |
| RRIRWRPPRLPRPRPRPMFVPRP | -0.51 |

| Sequence | shrunken log2 fold change |
| --- | --- |
| RRIRHRPPRLPRPRPRPHIHPRP | -0.328 |
| RRIRSRPPRLPRPRPRPTCVPRP | 0.0671 |
| RRIRTRPPRLPRPRPRPYNEPRP | -1.35 |
| RRIRDRPPRLPRPRPRPYWCPRP | 0.0158 |
| RRIRHRPPRLPRPRPRPLHAPRP | 0.297 |
| RRIRKRPPRLPRPRPRPMPRPRP | 0.276 |
| RRIRNRPPRLPRPRPRPCQCPRP | -0.00992 |
| RRIRSRPPRLPRPRPRPPEMPRP | 0.265 |
| RRIRHRPPRLPRPRPRPYCGPRP | 0.113 |
| RRIRSRPPRLPRPRPRPQHTPRP | -0.424 |
| RRIRDRPPRLPRPRPRPHTAPRP | -0.0443 |
| RRIRDRPPRLPRPRPRPGDCPRP | 0.0646 |
| RRIRIRPPRLPRPRPRPQWIPRP | 3.04 |
| RRIRMRPPRLPRPRPRPTGNPRP | 0.496 |
| RRIRDRPPRLPRPRPRPHGCPRP | -0.00865 |
| RRIRVRPPRLPRPRPRPHAMPRP | -0.18 |
| RRIRKRPPRLPRPRPRPNFLPRP | -0.185 |
| RRIRSRPPRLPRPRPRPRMCPRP | -0.155 |
| RRIRWRPPRLPRPRPRPNIYPRP | -0.307 |
| RRIRHRPPRLPRPRPRPIWRPRP | 0.139 |
| RRIRQRPPRLPRPRPRPCGAPRP | 0.133 |
| RRIRTRPPRLPRPRPRPKTQPRP | 0.19 |
| RRIRFRPPRLPRPRPRPATFPRP | -0.207 |
| RRIRDRPPRLPRPRPRPTINPRP | 0.135 |
| RRIRNRPPRLPRPRPRPYMQPRP | -0.315 |

| Sequence | shrunken log2 fold change |
| --- | --- |
| RRIRQRPPRLPRPRPRPKPIPRP | -0.112 |
| RRIRCRPPRLPRPRPRPRWMPRP | 0.346 |
| RRIRSRPPRLPRPRPRPMEYPRP | -0.00133 |
| RRIRYRPPRLPRPRPRPFDQPRP | -0.401 |
| RRIRHRPPRLPRPRPRPAPNPRP | 0.497 |
| RRIRCRPPRLPRPRPRPYWEPRP | -0.388 |
| RRIRNRPPRLPRPRPRPFNEPRP | -0.198 |
| RRIRPRPPRLPRPRPRPIYIPRP | -0.36 |
| RRIRARPPRLPRPRPRPEVYPRP | -0.00104 |
| RRIRTRPPRLPRPRPRPMGNPRP | -0.0115 |
| RRIRKRPPRLPRPRPRPFWAPRP | 0.659 |
| RRIRERPPRLPRPRPRPTIFPRP | -0.0972 |
| RRIRYRPPRLPRPRPRPWTSPRP | -0.039 |
| RRIRARPPRLPRPRPRPGISPRP | 0.337 |
| RRIRYRPPRLPRPRPRPRRPPRP | -0.0739 |
| RRIRQRPPRLPRPRPRPRFFPRP | 0.0926 |
| RRIRHRPPRLPRPRPRPLDEPRP | -0.0217 |
| RRIRTRPPRLPRPRPRPMFMPRP | 0.000513 |
| RRIRTRPPRLPRPRPRPFWVPRP | -0.0427 |
| RRIRARPPRLPRPRPRPVTLPRP | -0.121 |
| RRIRWRPPRLPRPRPRPFEGPRP | -0.0062 |
| RRIRDRPPRLPRPRPRPWGSPRP | -0.0321 |
| RRIRGRPPRLPRPRPRPQLKPRP | 0.404 |
| RRIRWRPPRLPRPRPRPQLDPRP | 0.0393 |
| RRIRVRPPRLPRPRPRPNVQPRP | -0.0734 |

| Sequence | shrunken log2 fold change |
| --- | --- |
| RRIRVRPPRLPRPRPRPHKRPRP | 0.06 |
| RRIRERPPRLPRPRPRPLWAPRP | 0.274 |
| RRIRYRPPRLPRPRPRPCGMPRP | -0.217 |
| RRIRCRPPRLPRPRPRPEFTPRP | -0.194 |
| RRIRKRPPRLPRPRPRPCMCPRP | -0.0956 |
| RRIRIRPPRLPRPRPRPMECPRP | -0.153 |
| RRIRLRPPRLPRPRPRPNHEPRP | -0.0961 |
| RRIRTRPPRLPRPRPRPPKDPRP | -0.187 |
| RRIRQRPPRLPRPRPRPCNMPRP | 0.00148 |
| RRIRKRPPRLPRPRPRPSWSPRP | -0.075 |
| RRIRSRPPRLPRPRPRPEDSPRP | 0.00839 |
| RRIRSRPPRLPRPRPRPQISPRP | -0.00331 |
| RRIRLRPPRLPRPRPRPTRHPRP | 0.156 |
| RRIRFRPPRLPRPRPRPCYIPRP | -0.158 |
| RRIRVRPPRLPRPRPRPCEKPRP | -0.0491 |
| RRIRGRPPRLPRPRPRPRNGPRP | 0.343 |
| RRIRSRPPRLPRPRPRPLESPRP | 0.14 |
| RRIRCRPPRLPRPRPRPGEPPRP | 0.0366 |
| RRIRIRPPRLPRPRPRPYRSPRP | -0.186 |
| RRIRNRPPRLPRPRPRPYEAPRP | -0.143 |
| RRIRRRPPRLPRPRPRPCWGPRP | 0.0286 |
| RRIRQRPPRLPRPRPRPFCCPRP | -0.114 |
| RRIRARPPRLPRPRPRPLITPRP | 0.305 |
| RRIRARPPRLPRPRPRPYHQPRP | -0.885 |
| RRIRCRPPRLPRPRPRPNRYPRP | -0.137 |

| Sequence | shrunken log2 fold change |
| --- | --- |
| RRIRHRPPRLPRPRPRPRMFPRP | -0.219 |
| RRIRFRPPRLPRPRPRPWNHPRP | -0.141 |
| RRIRIRPPRLPRPRPRPDCWPRP | 0.103 |
| RRIRDRPPRLPRPRPRPTMKPRP | 0.192 |
| RRIRSRPPRLPRPRPRPMAKPRP | 0.206 |
| RRIRIRPPRLPRPRPRPILAPRP | -0.286 |
| RRIRYRPPRLPRPRPRPPTYPRP | -0.615 |
| RRIRKRPPRLPRPRPRPSRFPRP | 1.06 |
| RRIRWRPPRLPRPRPRPSSWPRP | 0.0927 |
| RRIRKRPPRLPRPRPRPVYCPRP | -0.199 |
| RRIRSRPPRLPRPRPRPGMTPRP | -0.105 |
| RRIRDRPPRLPRPRPRPKYAPRP | 0.0137 |
| RRIRRRPPRLPRPRPRPCFRPRP | -0.00559 |
| RRIRPRPPRLPRPRPRPYFPPRP | -0.26 |
| RRIRKRPPRLPRPRPRPTDFPRP | 0.118 |
| RRIRGRPPRLPRPRPRPCTSPRP | 0.188 |
| RRIRYRPPRLPRPRPRPNRDPRP | -0.0959 |
| RRIRKRPPRLPRPRPRPDHGPRP | 1.01 |
| RRIRHRPPRLPRPRPRPQEPPRP | -0.136 |
| RRIRERPPRLPRPRPRPSPCPRP | -0.229 |
| RRIRVRPPRLPRPRPRPDRLPRP | 0.314 |
| RRIRCRPPRLPRPRPRPDYPPRP | -0.221 |
| RRIRRRPPRLPRPRPRPEMPPRP | 0.207 |
| RRIRMRPPRLPRPRPRPIPGPRP | 0.105 |
| RRIRRRPPRLPRPRPRPWQQPRP | -0.0108 |
